Numbered stars: 1 amine (or outer) side, 2 acyl side, 3 side chain; on linkers, the order of the positions; unused ones are H or OH. Bridge positions count the residues as written; N and C are the ends. Square brackets hold non-standard residues; d marks the D form. * marks the point of attachment. C20 diacid = O=C(O)CCCCCCCCCCCCCCCCCCC(=O)*; γGlu = O=C(O)[C@H](CCC(=O)[*:2])N[*:1]; Hyp = O=C(O)[C@@H]1C[C@@H](O)CN1; NMeI = CC[C@H](C)[C@H](NC)C(=O)O; Orn = NCCC[C@H](N)C(=O)O; Dab = NCC[C@H](N)C(=O)O; Sar = CNCC(=O)O
B1: Compound 2 (peptide)
peptide: {C20 diacid-γGlu}-RDGTAT[Dab]ATERLAHFLQRSSF[Sar]A[NMeI]LSSTEVGSNT[Hyp]-NH2
modifications: lactam 2-7
SMILES: CC[C@H](C)[C@@H](C(=O)N[C@@H](CC(C)C)C(=O)N[C@@H](CO)C(=O)N[C@@H](CO)C(=O)N[C@H](C(=O)N[C@@H](CCC(=O)O)C(=O)N[C@H](C(=O)NCC(=O)N[C@@H](CO)C(=O)N[C@@H](CC(N)=O)C(=O)N[C@H](C(=O)N1C[C@H](O)C[C@H]1C(N)=O)[C@@H](C)O)C(C)C)[C@@H](C)O)N(C)C(=O)[C@H](C)NC(=O)CN(C)C(=O)[C@H](Cc1ccccc1)NC(=O)[C@H](CO)NC(=O)[C@H](CO)NC(=O)[C@H](CCCNC(=N)N)NC(=O)[C@H](CCC(N)=O)NC(=O)[C@H](CC(C)C)NC(=O)[C@H](Cc1ccccc1)NC(=O)[C@H](Cc1c[nH]cn1)NC(=O)[C@H](C)NC(=O)[C@H](CC(C)C)NC(=O)[C@H](CCCNC(=N)N)NC(=O)[C@H](CCC(=O)O)NC(=O)[C@@H](NC(=O)[C@H](C)NC(=O)[C@@H]1CCNC(=O)C[C@H](NC(=O)[C@H](CCCNC(=N)N)NC(=O)CC[C@H](NC(=O)CCCCCCCCCCCCCCCCCCC(=O)O)C(=O)O)C(=O)NCC(=O)N[C@@H]([C@@H](C)O)C(=O)N[C@@H](C)C(=O)N[C@@H]([C@@H](C)O)C(=O)N1)[C@@H](C)O
B2: Compound 15 (peptide)
peptide: {C20 diacid-γGlu}-RDGTATKATQRLAHFLQRSSF[Sar]A[NMeI]PSSTEVGSNT[Hyp]-NH2
modifications: lactam 2-7
SMILES: CC[C@H](C)[C@@H](C(=O)N1CCC[C@H]1C(=O)N[C@@H](CO)C(=O)N[C@@H](CO)C(=O)N[C@H](C(=O)N[C@@H](CCC(=O)O)C(=O)N[C@H](C(=O)NCC(=O)N[C@@H](CO)C(=O)N[C@@H](CC(N)=O)C(=O)N[C@H](C(=O)N1C[C@H](O)C[C@H]1C(N)=O)[C@@H](C)O)C(C)C)[C@@H](C)O)N(C)C(=O)[C@H](C)NC(=O)CN(C)C(=O)[C@H](Cc1ccccc1)NC(=O)[C@H](CO)NC(=O)[C@H](CO)NC(=O)[C@H](CCCNC(=N)N)NC(=O)[C@H](CCC(N)=O)NC(=O)[C@H](CC(C)C)NC(=O)[C@H](Cc1ccccc1)NC(=O)[C@H](Cc1c[nH]cn1)NC(=O)[C@H](C)NC(=O)[C@H](CC(C)C)NC(=O)[C@H](CCCNC(=N)N)NC(=O)[C@H](CCC(N)=O)NC(=O)[C@@H](NC(=O)[C@H](C)NC(=O)[C@@H]1CCCCNC(=O)C[C@H](NC(=O)[C@H](CCCNC(=N)N)NC(=O)CC[C@H](NC(=O)CCCCCCCCCCCCCCCCCCC(=O)O)C(=O)O)C(=O)NCC(=O)N[C@@H]([C@@H](C)O)C(=O)N[C@@H](C)C(=O)N[C@@H]([C@@H](C)O)C(=O)N1)[C@@H](C)O
B3: Compound 10 (peptide)
peptide: {C20 diacid-γGlu}-RDGTAT[Orn]ATERLARFLQRSSF[Sar]A[NMeI]LSSTEVGSNT[Hyp]-NH2
modifications: lactam 2-7
SMILES: CC[C@H](C)[C@@H](C(=O)N[C@@H](CC(C)C)C(=O)N[C@@H](CO)C(=O)N[C@@H](CO)C(=O)N[C@H](C(=O)N[C@@H](CCC(=O)O)C(=O)N[C@H](C(=O)NCC(=O)N[C@@H](CO)C(=O)N[C@@H](CC(N)=O)C(=O)N[C@H](C(=O)N1C[C@H](O)C[C@H]1C(N)=O)[C@@H](C)O)C(C)C)[C@@H](C)O)N(C)C(=O)[C@H](C)NC(=O)CN(C)C(=O)[C@H](Cc1ccccc1)NC(=O)[C@H](CO)NC(=O)[C@H](CO)NC(=O)[C@H](CCCNC(=N)N)NC(=O)[C@H](CCC(N)=O)NC(=O)[C@H](CC(C)C)NC(=O)[C@H](Cc1ccccc1)NC(=O)[C@H](CCCNC(=N)N)NC(=O)[C@H](C)NC(=O)[C@H](CC(C)C)NC(=O)[C@H](CCCNC(=N)N)NC(=O)[C@H](CCC(=O)O)NC(=O)[C@@H](NC(=O)[C@H](C)NC(=O)[C@@H]1CCCNC(=O)C[C@H](NC(=O)[C@H](CCCNC(=N)N)NC(=O)CC[C@H](NC(=O)CCCCCCCCCCCCCCCCCCC(=O)O)C(=O)O)C(=O)NCC(=O)N[C@@H]([C@@H](C)O)C(=O)N[C@@H](C)C(=O)N[C@@H]([C@@H](C)O)C(=O)N1)[C@@H](C)O
B4: Compound 13 (peptide)
peptide: {C20 diacid-γGlu}-RDGTLTKATERLAHFLQRSSF[Sar]A[NMeI]LSSTEVGSNT[Hyp]-NH2
modifications: lactam 2-7
SMILES: CC[C@H](C)[C@@H](C(=O)N[C@@H](CC(C)C)C(=O)N[C@@H](CO)C(=O)N[C@@H](CO)C(=O)N[C@H](C(=O)N[C@@H](CCC(=O)O)C(=O)N[C@H](C(=O)NCC(=O)N[C@@H](CO)C(=O)N[C@@H](CC(N)=O)C(=O)N[C@H](C(=O)N1C[C@H](O)C[C@H]1C(N)=O)[C@@H](C)O)C(C)C)[C@@H](C)O)N(C)C(=O)[C@H](C)NC(=O)CN(C)C(=O)[C@H](Cc1ccccc1)NC(=O)[C@H](CO)NC(=O)[C@H](CO)NC(=O)[C@H](CCCNC(=N)N)NC(=O)[C@H](CCC(N)=O)NC(=O)[C@H](CC(C)C)NC(=O)[C@H](Cc1ccccc1)NC(=O)[C@H](Cc1c[nH]cn1)NC(=O)[C@H](C)NC(=O)[C@H](CC(C)C)NC(=O)[C@H](CCCNC(=N)N)NC(=O)[C@H](CCC(=O)O)NC(=O)[C@@H](NC(=O)[C@H](C)NC(=O)[C@@H]1CCCCNC(=O)C[C@H](NC(=O)[C@H](CCCNC(=N)N)NC(=O)CC[C@H](NC(=O)CCCCCCCCCCCCCCCCCCC(=O)O)C(=O)O)C(=O)NCC(=O)N[C@@H]([C@@H](C)O)C(=O)N[C@@H](CC(C)C)C(=O)N[C@@H]([C@@H](C)O)C(=O)N1)[C@@H](C)O
B5: Compound 12 (peptide)
peptide: {C20 diacid-γGlu}-RDGEATKATERLAHFLQRSSF[Sar]A[NMeI]LSSTEVGSNT[Hyp]-NH2
modifications: lactam 2-7
SMILES: CC[C@H](C)[C@@H](C(=O)N[C@@H](CC(C)C)C(=O)N[C@@H](CO)C(=O)N[C@@H](CO)C(=O)N[C@H](C(=O)N[C@@H](CCC(=O)O)C(=O)N[C@H](C(=O)NCC(=O)N[C@@H](CO)C(=O)N[C@@H](CC(N)=O)C(=O)N[C@H](C(=O)N1C[C@H](O)C[C@H]1C(N)=O)[C@@H](C)O)C(C)C)[C@@H](C)O)N(C)C(=O)[C@H](C)NC(=O)CN(C)C(=O)[C@H](Cc1ccccc1)NC(=O)[C@H](CO)NC(=O)[C@H](CO)NC(=O)[C@H](CCCNC(=N)N)NC(=O)[C@H](CCC(N)=O)NC(=O)[C@H](CC(C)C)NC(=O)[C@H](Cc1ccccc1)NC(=O)[C@H](Cc1c[nH]cn1)NC(=O)[C@H](C)NC(=O)[C@H](CC(C)C)NC(=O)[C@H](CCCNC(=N)N)NC(=O)[C@H](CCC(=O)O)NC(=O)[C@@H](NC(=O)[C@H](C)NC(=O)[C@@H]1CCCCNC(=O)C[C@H](NC(=O)[C@H](CCCNC(=N)N)NC(=O)CC[C@H](NC(=O)CCCCCCCCCCCCCCCCCCC(=O)O)C(=O)O)C(=O)NCC(=O)N[C@@H](CCC(=O)O)C(=O)N[C@@H](C)C(=O)N[C@@H]([C@@H](C)O)C(=O)N1)[C@@H](C)O
B6: Compound 11 (peptide)
peptide: {C20 diacid-γGlu}-EDGTATKATERLAHFLQRSSF[Sar]A[NMeI]LSSTEVGSNT[Hyp]-NH2
modifications: lactam 2-7
SMILES: CC[C@H](C)[C@@H](C(=O)N[C@@H](CC(C)C)C(=O)N[C@@H](CO)C(=O)N[C@@H](CO)C(=O)N[C@H](C(=O)N[C@@H](CCC(=O)O)C(=O)N[C@H](C(=O)NCC(=O)N[C@@H](CO)C(=O)N[C@@H](CC(N)=O)C(=O)N[C@H](C(=O)N1C[C@H](O)C[C@H]1C(N)=O)[C@@H](C)O)C(C)C)[C@@H](C)O)N(C)C(=O)[C@H](C)NC(=O)CN(C)C(=O)[C@H](Cc1ccccc1)NC(=O)[C@H](CO)NC(=O)[C@H](CO)NC(=O)[C@H](CCCNC(=N)N)NC(=O)[C@H](CCC(N)=O)NC(=O)[C@H](CC(C)C)NC(=O)[C@H](Cc1ccccc1)NC(=O)[C@H](Cc1c[nH]cn1)NC(=O)[C@H](C)NC(=O)[C@H](CC(C)C)NC(=O)[C@H](CCCNC(=N)N)NC(=O)[C@H](CCC(=O)O)NC(=O)[C@@H](NC(=O)[C@H](C)NC(=O)[C@@H]1CCCCNC(=O)C[C@H](NC(=O)[C@H](CCC(=O)O)NC(=O)CC[C@H](NC(=O)CCCCCCCCCCCCCCCCCCC(=O)O)C(=O)O)C(=O)NCC(=O)N[C@@H]([C@@H](C)O)C(=O)N[C@@H](C)C(=O)N[C@@H]([C@@H](C)O)C(=O)N1)[C@@H](C)O
B7: Compound 14 (peptide)
peptide: {C20 diacid-γGlu}-RDGTASKATERLAHFLQRSSF[Sar]A[NMeI]LSSTEVGSNT[Hyp]-NH2
modifications: lactam 2-7
SMILES: CC[C@H](C)[C@@H](C(=O)N[C@@H](CC(C)C)C(=O)N[C@@H](CO)C(=O)N[C@@H](CO)C(=O)N[C@H](C(=O)N[C@@H](CCC(=O)O)C(=O)N[C@H](C(=O)NCC(=O)N[C@@H](CO)C(=O)N[C@@H](CC(N)=O)C(=O)N[C@H](C(=O)N1C[C@H](O)C[C@H]1C(N)=O)[C@@H](C)O)C(C)C)[C@@H](C)O)N(C)C(=O)[C@H](C)NC(=O)CN(C)C(=O)[C@H](Cc1ccccc1)NC(=O)[C@H](CO)NC(=O)[C@H](CO)NC(=O)[C@H](CCCNC(=N)N)NC(=O)[C@H](CCC(N)=O)NC(=O)[C@H](CC(C)C)NC(=O)[C@H](Cc1ccccc1)NC(=O)[C@H](Cc1c[nH]cn1)NC(=O)[C@H](C)NC(=O)[C@H](CC(C)C)NC(=O)[C@H](CCCNC(=N)N)NC(=O)[C@H](CCC(=O)O)NC(=O)[C@@H](NC(=O)[C@H](C)NC(=O)[C@@H]1CCCCNC(=O)C[C@H](NC(=O)[C@H](CCCNC(=N)N)NC(=O)CC[C@H](NC(=O)CCCCCCCCCCCCCCCCCCC(=O)O)C(=O)O)C(=O)NCC(=O)N[C@@H]([C@@H](C)O)C(=O)N[C@@H](C)C(=O)N[C@@H](CO)C(=O)N1)[C@@H](C)O

What follows are binders tested against recombinant human calcitonin receptor (hCT-R) (human), P30988 (assay: cell-based or functional assay).
Chain of recombinant human calcitonin receptor (hCT-R) (human), P30988 (P30988 25-474): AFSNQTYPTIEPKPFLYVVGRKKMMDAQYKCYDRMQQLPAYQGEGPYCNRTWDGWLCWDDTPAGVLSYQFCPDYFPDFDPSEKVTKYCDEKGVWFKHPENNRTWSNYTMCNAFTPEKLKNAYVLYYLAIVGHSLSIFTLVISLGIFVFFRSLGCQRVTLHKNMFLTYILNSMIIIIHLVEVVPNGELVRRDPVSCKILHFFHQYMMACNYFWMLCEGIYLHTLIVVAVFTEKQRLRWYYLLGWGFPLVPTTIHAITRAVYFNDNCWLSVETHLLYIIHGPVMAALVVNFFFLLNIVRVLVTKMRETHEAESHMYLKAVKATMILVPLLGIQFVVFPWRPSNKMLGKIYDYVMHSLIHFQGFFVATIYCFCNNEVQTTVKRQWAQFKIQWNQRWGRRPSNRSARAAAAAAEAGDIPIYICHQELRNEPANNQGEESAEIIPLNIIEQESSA
Work on B1 yielded a hCT-R EC50 [nM] (cAMP formation, 1321N1 cells expressing hCT-R) of 0.105 nM.
For B2, the hCT-R EC50 [nM] (cAMP formation, 1321N1 cells expressing hCT-R) was 0.056 nM.
Work on B3 yielded a hCT-R EC50 [nM] (cAMP formation, 1321N1 cells expressing hCT-R) of 0.345 nM.
In the case of B4, the hCT-R EC50 [nM] (cAMP formation, 1321N1 cells expressing hCT-R) is reported as 1.41 nM.
B5 gave a hCT-R EC50 [nM] (cAMP formation, 1321N1 cells expressing hCT-R) of 0.893 nM.
For B6, the hCT-R EC50 [nM] (cAMP formation, 1321N1 cells expressing hCT-R) was 0.068 nM.
B7 was tested, and the hCT-R EC50 [nM] (cAMP formation, 1321N1 cells expressing hCT-R) was 0.386 nM.

These binders were tested against recombinant human amylin 3 receptor (hAMYR3) (human), P30988 (assay: cell-based or functional assay).
Chain of recombinant human amylin 3 receptor (hAMYR3) (human), P30988 (P30988 25-474, chain 1 of 2): as the sequence (P30988 25-474) above
Chain of recombinant human amylin 3 receptor (hAMYR3) (human), P30988 (O60896 24-148, chain 2 of 2, further chain): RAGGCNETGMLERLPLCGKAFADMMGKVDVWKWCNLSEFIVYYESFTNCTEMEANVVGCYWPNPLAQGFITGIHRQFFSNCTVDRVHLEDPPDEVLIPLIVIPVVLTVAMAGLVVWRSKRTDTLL
In the case of B1, the hAMYR3 EC50 [nM] (cAMP formation, 1321N1 cells expressing hAMYR3) is reported as 0.032 nM.
B2 gave a hAMYR3 EC50 [nM] (cAMP formation, 1321N1 cells expressing hAMYR3) of 0.017 nM.
B3 was tested, and the hAMYR3 EC50 [nM] (cAMP formation, 1321N1 cells expressing hAMYR3) was 0.068 nM.
B4 gave a hAMYR3 EC50 [nM] (cAMP formation, 1321N1 cells expressing hAMYR3) of 0.456 nM.
With B5 the hAMYR3 EC50 [nM] (cAMP formation, 1321N1 cells expressing hAMYR3) was 0.999 nM.
B6 was tested, and the hAMYR3 EC50 [nM] (cAMP formation, 1321N1 cells expressing hAMYR3) was 0.024 nM.
With B7 the hAMYR3 EC50 [nM] (cAMP formation, 1321N1 cells expressing hAMYR3) was 0.108 nM.

From patent US20180071366A1
